# Results reported in patent US20230025732A1 (INNATE PHARMA, published 2023).
# T1: human CD39 expressed at the cell surface (human, UniProt P49961 1-510)
# T1 construct: On CHO transfectants, Hek-293T transfectants, Ramos and Mino tumor cells; also called huCD39; CHO-huCD39
# T1 sequence: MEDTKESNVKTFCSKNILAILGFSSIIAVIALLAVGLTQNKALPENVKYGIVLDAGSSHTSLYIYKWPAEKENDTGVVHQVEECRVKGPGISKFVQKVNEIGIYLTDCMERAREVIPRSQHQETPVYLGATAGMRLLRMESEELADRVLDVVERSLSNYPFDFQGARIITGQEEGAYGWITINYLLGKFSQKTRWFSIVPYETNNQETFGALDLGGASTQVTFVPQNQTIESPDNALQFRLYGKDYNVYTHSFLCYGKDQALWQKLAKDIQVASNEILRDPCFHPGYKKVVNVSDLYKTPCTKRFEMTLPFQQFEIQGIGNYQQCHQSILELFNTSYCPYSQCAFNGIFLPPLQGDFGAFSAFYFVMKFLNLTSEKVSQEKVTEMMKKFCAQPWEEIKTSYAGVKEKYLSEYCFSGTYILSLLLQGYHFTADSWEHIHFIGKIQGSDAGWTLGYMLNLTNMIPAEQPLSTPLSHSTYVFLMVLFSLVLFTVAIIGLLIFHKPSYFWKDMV
# B1: I-394 (antibody, human IgG1, V domains shown)
# VH: EVQLQQSGPELVKPGASVKMSCKASGYTFTDYNMHWVKQSHGRTLEWIGYIVPLNGGSTFNQKFKGRATLTVNTSSRTAYMELRSLTSEDSAAYYCARGGTRFAYWGQGTLVTVSA
# VL: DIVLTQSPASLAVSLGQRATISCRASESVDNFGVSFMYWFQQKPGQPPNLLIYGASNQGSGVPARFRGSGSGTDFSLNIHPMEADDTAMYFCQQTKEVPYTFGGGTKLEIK
# Molecular target: T1, human CD39 expressed at the cell surface
# Assay: flow cytometry, Ramos lymphoma cells, second set of experiments; Ramos cells, second set of experiments
# Description: Cells were incubated with various concentration of unlabeled anti-CD39 antibody from 30 μg/ml to 5×10⁻⁴ μg/ml, for 30 minutes at 4° C. After washes, cells were incubated with Goat anti-mouse H+L labeled secondary antibody for 30 min at 4° C.
binder,measurement,value
B1,EC50,0.19 µg/mL
